From patent US20240093240, “GENE FUNCTION CONTROL BY NOVEL GUIDE NUCLEIC ACID MECHANISM” (NATIONAL UNIVERSITY CORPORATION KOBE UNIVERSITY, published 2024)

What was measured:
[1] = target: T1, RsAgo (UniProt A4WYU7 A4WYU7:1-777); assay: EMSA; 20 mM HEPES-KOH pH 7.5, 200 mM NaCl, 5 mM MgCl2, 25 C; conditions: tag removed by Ulp1 protease
T1 sequence: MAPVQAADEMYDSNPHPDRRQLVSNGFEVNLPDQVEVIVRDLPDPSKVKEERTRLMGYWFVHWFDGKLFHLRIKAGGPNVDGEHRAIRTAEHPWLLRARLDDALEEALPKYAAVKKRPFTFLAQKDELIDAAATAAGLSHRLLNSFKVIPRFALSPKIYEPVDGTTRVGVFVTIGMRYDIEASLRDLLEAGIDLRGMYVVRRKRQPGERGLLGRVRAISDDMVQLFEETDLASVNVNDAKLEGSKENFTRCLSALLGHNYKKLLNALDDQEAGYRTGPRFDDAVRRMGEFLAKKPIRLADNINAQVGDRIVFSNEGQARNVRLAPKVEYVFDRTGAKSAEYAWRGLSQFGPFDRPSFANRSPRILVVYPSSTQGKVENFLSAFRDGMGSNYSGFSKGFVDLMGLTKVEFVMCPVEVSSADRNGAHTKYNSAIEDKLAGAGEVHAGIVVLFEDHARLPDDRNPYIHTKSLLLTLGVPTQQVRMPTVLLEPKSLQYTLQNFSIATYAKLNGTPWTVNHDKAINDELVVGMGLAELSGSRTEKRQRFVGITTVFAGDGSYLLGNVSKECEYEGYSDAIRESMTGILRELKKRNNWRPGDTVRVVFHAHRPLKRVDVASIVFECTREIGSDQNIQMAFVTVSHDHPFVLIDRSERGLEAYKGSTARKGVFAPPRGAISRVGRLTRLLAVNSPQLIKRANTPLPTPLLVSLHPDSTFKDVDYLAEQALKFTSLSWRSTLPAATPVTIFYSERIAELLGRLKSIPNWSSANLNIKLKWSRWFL
Procedure: (§1) The purified protein and synthetic oligonucleotide were mixed in the presence of the above reaction buffer and incubated for 20 minutes at 25° C. […] Detection was performed with Blue light LED.

[2] = target: T1, RsAgo; assay: EMSA; high affinity to 5'-P ssRNA; 5 mM MgCl2, 200 mM NaCl, 25 C; conditions: tag removed by Ulp1 protease; label: 3'-FAM
Procedure: as §1

[3] = target: T1, RsAgo; assay: EMSA; 500 nM RsAgo, 100 nM guide, 100-1000 nM target; 5 mM MgCl2, 25 C; conditions: tag removed by Ulp1 protease; label: 3'-FAM; duplex with 18 nt mismatched bubble over the target site
Procedure: (§2) The purified protein (final 500 nM) and labelled guide RNA (final 100 nM) were mixed in the presence of the above reaction buffer and incubated for 15 minutes at 25° C. to form a complex. The target DNA was added (final 100 to 1000 nM) thereto.

[4] = target: T1, RsAgo; assay: EMSA; cannot bind fully double stranded DNA on its own; 5 mM MgCl2, 25 C; conditions: tag removed by Ulp1 protease; label: 3'-FAM
Procedure: as §2

B1: ssDNA 18 nt (ssDNA)
DNA: CGAGGTAGTAGGTTGTAA
binding result ([1]; label: 5'-FAM): binds

B2: ssRNA 18 nt 5'-phosphate guide (ssRNA)
RNA: UUACAACCUACUACCUCG
modifications: 5'-phosphate
binding result [2]: binds

B3: ssRNA 18 nt 5'-OH (ssRNA)
RNA: UUACAACCUACUACCUCG
binding result ([1]; label: 3'-FAM): binds

B4: ssRNA 18 nt 5'-phosphate guide ; bubble target, 18 nt unpaired (ssRNA ; structured_DNA)
RNA: UUACAACCUACUACCUCG
DNA 1: GGATAACAATTCCCCTCTAGAAGTGGTTCGTGCTTCAACATGGGTCATCACCATCATC
DNA 2: GATGATGGTGATGACCCATGCGAGGTAGTAGGTTGTAACTAGAGGGGAATTGTTATCC
modifications: 5'-phosphate
binding result [3]: binds

B5: ssRNA 18 nt 5'-phosphate guide ; fully double stranded target (ssRNA ; dsDNA)
RNA: UUACAACCUACUACCUCG
DNA 1: GGATAACAATTCCCCTCTAGTTACAACCTACTACCTCGCATGGGTCATCACCATCATC
DNA 2: GATGATGGTGATGACCCATGCGAGGTAGTAGGTTGTAACTAGAGGGGAATTGTTATCC
modifications: 5'-phosphate
binding result [4]: no binding
